Test results from the supplement of paper PMC9170038.

Tested on: K4 kissing-loop RNA reporter
Assay: apparent KD of K4 kissing-loop reporter; higher = weaker reporter binding
Settings: Eterna round: R107
Procedure: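 RNA-MaP round R107: designed RNA switches with theophylline, tryptophan, arginine or FMN aptamers are transcribed on-chip within common flanks. They are titrated with a labelled K4 kissing-loop RNA reporter in RNA-MaP buffer (100 mM Tris pH 7.5, 80 mM KCl, 4 mM MgCl2), without ligand or with the indicated ligand. Median apparent KD per design.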

[1] = input ligand: theophylline 20 uM
[2] = input ligand: tryptophan 2.4 mM
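Further: bound reporter read as fluorescence of individual clusters on recovered sequencing chips by microscopy, with normalized cluster intensities fitted with a binding model.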

| Sequence | apparent KD of K4 kissing-loop reporter (input ligand: FMN 200 uM) | apparent KD of K4 kissing-loop reporter (input ligand: arginine 13.2 mM) | apparent KD of K4 kissing-loop reporter (input ligand: none) | apparent KD of K4 kissing-loop reporter [1] | apparent KD of K4 kissing-loop reporter [2] |
| --- | --- | --- | --- | --- | --- |
| CUGGGUUGACGAAAAGUCAACAAAUGAGAAGGAGCGCACGAAAGUGCAGGUAGGUCGCUCAAUCCAGUGAUGUUGGGUCAUCCAG [#SwitchBubble 13 #K4Late] | 856 nM | 612 nM | 993 nM | 951 nM | 731 nM |
| CUUGUACAUGCCGAGGUAGGUGCGGGUUAGCGAGGACCGGUACGGCCGCCACUCGCCAAGUGAUGUUUGGUCCUUUGGGUCGGCA | 948 nM | 507 nM | 562 nM | 663 nM | 633 nM |
| CUUUAUCAACCAGAUACCAGCGGUUCUCUAGUUGGCUUCCGUAGUGAUGUUGCGUGGUCCCGCCCUUGGCAGCUGGCCAUGACUA [theeternabot_sameState_KL_Theo_B_5] | 1060 nM | 684 nM | 1170 nM | 798 nM | 993 nM |
| GAACGGCGGGCGGCCGCCACUGGUAUACGAGUGAUGUUCGGAUAUACGUGAUGUAAGGUAAUUAACAGGACCGGGUCAGGGCCGG [whbob_SS_Tryp_B_t20] | 278 nM | 208 nM | 239 nM | 294 nM | 238 nM |
| GAAUUAUGUAGAAGGAGCGUUAGAAGGUAUAGGUGCGAGUGAUGUUUGGACUUGUUAAUUUGACAGGUAGGUCGCUACAGAAGGA [KL-SSArg B19 #analogue] | 496 nM | 281 nM | 499 nM | 379 nM | 451 nM |
| GAAUUAUGUAGAAGGAGCGUUAGAAGGUAUAGGUGUGAGUGAUGUUCGGAUUUGUUAAUUUGACAGGUAGGUCGCUACAGAAGGA [KL-SSArg B17 #analogue] | 435 nM | 267 nM | 242 nM | 132 nM | 106 nM |
| GACAUACCUAUGGAGGGCCGAUCGAUCAUACGAGGACCGGUACGGCCGCCACUCGUGGGCAGUGAUGUUGACCCUGGGAGGUAAG | 316 nM | 223 nM | 252 nM | 232 nM | 483 nM |
| GACUCAUGUAGAAGGAGCGUCAGAAGCUACAGACAUGAGUGAUGUUCAUGUUAGUUGAUCUGACAGGUAGGUCGCUACAGCAGGA [KL-SSArg B14 #analogue] | 145 nM | 121 nM | 149 nM | 141 nM | 150 nM |
| GAGAGCUCUGGAGGAUAUGAGUCUAGUGAUGUUAGGCGGUCCAUGCGCGUGGCGCGUUAUGCCCUUUUAGAAGGCCAGAGCUCUC [#2 Exclusion - FMN B Attempt #19 (HarryS)] | 98.3 nM | 69.3 nM | 99.8 nM | 113 nM | 85 nM |
| GAGAUAGAGGCGGCCGCCACUAGUGAUGUUGGUGAUGUUAGAUAGAGAAUAGAACGGGUACUCCCUAGGACCGGGCCAGAUGGAG [#04 K4 Tryptophan B Exclusion] | 63.8 nM | 34.9 nM | 58.5 nM | 49.4 nM | 53 nM |
| GAGCGGUGGAGGUUACCGCUAUUCUGAGAAGGAGCGCAGAUGACUGCAGGUAGGUCGCUUAGAGCUUGCAGUGAUGUUGCAAGUU [Edrirama] | 197 nM | 177 nM | 213 nM | 193 nM | 213 nM |
| GAGGGCUCGGGAGGAUAUGAGUCUAGUGAUGUUAGGCGGUCCAUGCGCGUGGCGCGUUAUGCCCUUUUAGAAGGCCCGAGCCCGC [#2 Exclusion - FMN B Attempt #23 (HarryS)] | 109 nM | 76.4 nM | 90.5 nM | 83.3 nM | 93.8 nM |
| GAUAUAGUGAUGUUAUAUAAGAAGGAGUUACGAGGACCGGUACGGCCGCCACUCGAAACGAGUGAUGAUUUGGGAGAUUGGGUUG [SSTryptA.O] | 380 nM | 330 nM | 350 nM | 339 nM | 265 nM |
| GAUAUAGUGAUGUUAUAUAGGAAGGAGUUACGAGGACCGGUACGGCCGCCACUCGAAACGAGUGAUGAUUUGGGAGAUUGGGUUG [SSTryptA.P] | 364 nM | 359 nM | 395 nM | 430 nM | 332 nM |
| GAUCUGAACGAAAGUUCGGAUCAGUCCGAUACCAGUAUGGAUUCAUACCCUUGGCAGCGGAAAUCUGCUAUGGAGUGAUGUUCCU [Theophylline A K4 13] | 362 nM | 280 nM | 413 nM | 396 nM | 274 nM |
| GAUUGUGAUGGAAACAUCGCAAUCUCUGAAGGAGCGCGUGAAAACGCAGGUAGGUCGCAGGACGACUAUGACAGUGAUGUUGUCG [Ex Arginine A K4 3] | 189 nM | 216 nM | 190 nM | 207 nM | 189 nM |
| GAUUUAGAGGCGGCCGCCACUAGUGAUGUUAGUGAUGUUUGAUACGGAAUAUAUCUGCGAGUAGAUAGGACCGGGCCAGAUGGAG [rttrbmullin] | 207 nM | 150 nM | 170 nM | 184 nM | 181 nM |

| Sequence | apparent KD of K4 kissing-loop reporter (input ligand: FMN 200 uM) | apparent KD of K4 kissing-loop reporter (input ligand: arginine 13.2 mM) | apparent KD of K4 kissing-loop reporter (input ligand: none) | apparent KD of K4 kissing-loop reporter [1] | apparent KD of K4 kissing-loop reporter [2] |
| --- | --- | --- | --- | --- | --- |
| GCAACUCUCAGUGAUGUUGAGUUAUCGGAAGGAGCGCGUGAAAACGCAGGUAGGUCGCCGAUACAAUGAGUUUCUCGUUGGUUGC [Arginine A K4 21] | 769 nM | 489 nM | 664 nM | 554 nM | 569 nM |
| GCAAUUCUCAGUGAUGUUGAGUAAUCGGAAGGAGCGCGUGAAAACGCAGGUAGGUCGCCGAAACAUGAAGUAUCUUCGUGUUUGC [Arginine A K4 24] | 180 nM | 190 nM | 215 nM | 226 nM | 168 nM |
| GCAGGACGAGGAGGAGGAUGAAUUACUGAAGGAGCGCAUAUGGUUGCAGGUAGGUCGCGGUAAACAAGUAUAGUGAUGUUAUAUC [SSArgA.P] | 913 nM | 586 nM | 552 nM | 621 nM | 584 nM |
| GCAGGACGAGGAGGAGGAUGAAUUACUGAAGGAGCGCAUAUUUUUGCAGGUAGGUCGCGGUAAACAAGUAUAGUGAUGUUAUAUA [SSArgA.M] | 415 nM | 464 nM | 446 nM | 514 nM | 264 nM |
| GCCAGGCAUCUGCAGAGUGAUGUUCAAAAGCGAGGACCGGUACGGCCGCCACUCGAAAGCAGAUGCCUGGGCGUACAAAGUACGC [idea] | 1140 nM | 262 nM | 984 nM | 562 nM | 899 nM |
| GCCGAAUCGUUGGGCUCAGUGAUGUUGAUCCGAGGACCGGUACGGCCGCCACUCGAAUGGCAGUGACCACACUGGUAACGUUAAA [theeternabot_exclusion_KL_Trp_A_43] | 573 nM | 490 nM | 699 nM | 575 nM | 261 nM |
| GCCGUACGCAUGGAUACCAGAGAUGUUAGUCUCGAUGCCAGUGAUGUUGGCUAUAGCAUACUCCCUUGGCAGCCAUGCGUACGGC | 132 nM | 113 nM | 128 nM | 113 nM | 107 nM |
| GCCGUACGCAUGGAUACCAGCAAUUAUGCUCGUGAUCUAGUGAUGUUAGUGGCGAAAGUUUGCCCUUGGCAGCCAUGCGUACGGC | 224 nM | 172 nM | 244 nM | 134 nM | 182 nM |
| GCCGUACGCAUGGAUACCAGCGUACGUCACCUAGCAGUGAUGUUGCUAUUGCCACGUAAACGCCCUUGGCAGCCAUGCGUACGGC | 495 nM | 448 nM | 478 nM | 181 nM | 445 nM |
| GCCGUAGAUGGAAGGAGCGAGGUAGACUGUUGAAGUGAUGUUUCAACUCAUUAAGCCCAACCUCAGGUAGGUCGCCAUCUACGGC | 133 nM | 110 nM | 115 nM | 118 nM | 115 nM |
| GCCGUAGAUGGAAGGAGCGUGUCAAAGUGAUGUUUUGAUUAACUCCCUAAGGGAUAGAUGACACAGGUAGGUCGCCAUCUACGGC | 74.5 nM | 63.5 nM | 74.3 nM | 102 nM | 63.3 nM |
| GCCGUAGAUGGAAGGAGCGUGUCCAAACCUCAUUCAUGUACACACGAGUGAUGUUCGUGUACACAGGUAGGUCGCCAUCUACGGC | 413 nM | 314 nM | 374 nM | 410 nM | 363 nM |
| GCCGUAGAUUGAAGGAGCGAGGCUACUUAAAGACCGAGUGAUGUUCGGGAACGUGAAACUCCUCAGGUAGGUCGCAAUCUACGGC | 284 nM | 235 nM | 280 nM | 227 nM | 267 nM |
| GCCGUAGAUUGAAGGAGCGCCUUCUUACCAAGAGUGAUGUUCUUUGGUACCAUGUUCAGUAGGCAGGUAGGUCGCAAUCUACGGC | 292 nM | 258 nM | 332 nM | 387 nM | 390 nM |
| GCCUACGCUGCAGGAUAUAGUUACAGCGACUUAGCCGUUGUAUGUCCAUGGUUCAGUGAUGUUGAACUAGAAGGGCAGCGUAGGC [#02 K4 FMN B Exclusion] | 285 nM | 127 nM | 132 nM | 134 nM | 154 nM |
| GCGAGUUUGCAAGGAUAUCGACCGUCGUACGACCAGUGAUGUUGGGAGUACUUUCAAAAUCGAUUUCGAGAAGGUGCUGGCAUCA [theeternabot_sameState_KL_FMN_B_12] | 271 nM | 212 nM | 250 nM | 248 nM | 234 nM |
| GCGAUCUGCAUCGAUACCAGCCCAGUGAUGUUGGGCUGCUCUCCAUGGGUGCCAGACACGGGCCCUUGGCAGCGAGGUAGAGCCC [Maonzaa] | 129 nM | 118 nM | 109 nM | 112 nM | 115 nM |
